Assay results published in patent US20250340902A1, “GENE THERAPY FOR BVES-RELATED DISORDERS” (OHIO STATE INNOVATION FOUNDATION, priority 2022, published 2025).

What was measured:
Test in all cases: anti-HA co-IP from muscle, MS; CTRL 0
[1] = target: 60S ribosomal protein L15 (Mus musculus) (UniProt Q9CZM2)
[2] = target: ATP-binding cassette sub-family F member 1 (Mus musculus) (UniProt Q6P542)
[3] = target: ATP-binding cassette sub-family F member 2 (Mus musculus) (UniProt Q99LE6)
Ankyrin-1 (Mus musculus) = Ankyrin-1 (Mus musculus) (UniProt Q02357)
Ankyrin-3 (Mus musculus) = Ankyrin-3 (Mus musculus) (UniProt G5E8K5)
[4] = target: C-1-tetrahydrofolate synthase, cytoplasmic (Mus musculus) (UniProt Q922D8)
[5] = target: C-type lectin domain family 3 member A (Mus musculus) (UniProt Q9EPW4)
[6] = target: Casein kinase II subunit alpha (Mus musculus) (UniProt Q60737)
[7] = target: Cell cycle progression protein 1 (Mus musculus) (UniProt Q640L3)
Cell cycle progression protein 1 (Mus musculus), sequence (Q640L3 whole entry): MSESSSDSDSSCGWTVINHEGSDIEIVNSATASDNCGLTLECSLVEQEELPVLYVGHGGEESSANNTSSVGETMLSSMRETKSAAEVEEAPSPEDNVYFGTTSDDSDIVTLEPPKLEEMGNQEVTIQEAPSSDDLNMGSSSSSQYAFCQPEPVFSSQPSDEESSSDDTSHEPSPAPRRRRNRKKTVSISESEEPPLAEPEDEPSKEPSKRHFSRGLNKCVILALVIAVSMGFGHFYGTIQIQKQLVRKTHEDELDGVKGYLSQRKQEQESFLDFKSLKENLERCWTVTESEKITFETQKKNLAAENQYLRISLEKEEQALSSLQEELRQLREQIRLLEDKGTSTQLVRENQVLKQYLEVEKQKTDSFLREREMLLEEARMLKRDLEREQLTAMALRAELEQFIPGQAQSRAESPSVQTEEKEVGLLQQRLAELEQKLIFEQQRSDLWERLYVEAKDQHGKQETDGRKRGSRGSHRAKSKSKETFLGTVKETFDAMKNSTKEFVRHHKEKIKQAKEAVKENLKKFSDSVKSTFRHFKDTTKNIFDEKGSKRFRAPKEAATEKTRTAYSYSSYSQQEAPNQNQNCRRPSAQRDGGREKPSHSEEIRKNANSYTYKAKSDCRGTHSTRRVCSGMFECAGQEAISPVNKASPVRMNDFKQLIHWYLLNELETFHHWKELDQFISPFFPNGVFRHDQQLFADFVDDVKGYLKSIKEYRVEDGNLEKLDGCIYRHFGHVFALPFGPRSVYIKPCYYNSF

[8] = target: Chromatin-remodeling ATPase INO80 (Mus musculus) (UniProt Q6ZPV2)
Chromatin-remodeling ATPase INO80 (Mus musculus), sequence (Q6ZPV2 whole entry): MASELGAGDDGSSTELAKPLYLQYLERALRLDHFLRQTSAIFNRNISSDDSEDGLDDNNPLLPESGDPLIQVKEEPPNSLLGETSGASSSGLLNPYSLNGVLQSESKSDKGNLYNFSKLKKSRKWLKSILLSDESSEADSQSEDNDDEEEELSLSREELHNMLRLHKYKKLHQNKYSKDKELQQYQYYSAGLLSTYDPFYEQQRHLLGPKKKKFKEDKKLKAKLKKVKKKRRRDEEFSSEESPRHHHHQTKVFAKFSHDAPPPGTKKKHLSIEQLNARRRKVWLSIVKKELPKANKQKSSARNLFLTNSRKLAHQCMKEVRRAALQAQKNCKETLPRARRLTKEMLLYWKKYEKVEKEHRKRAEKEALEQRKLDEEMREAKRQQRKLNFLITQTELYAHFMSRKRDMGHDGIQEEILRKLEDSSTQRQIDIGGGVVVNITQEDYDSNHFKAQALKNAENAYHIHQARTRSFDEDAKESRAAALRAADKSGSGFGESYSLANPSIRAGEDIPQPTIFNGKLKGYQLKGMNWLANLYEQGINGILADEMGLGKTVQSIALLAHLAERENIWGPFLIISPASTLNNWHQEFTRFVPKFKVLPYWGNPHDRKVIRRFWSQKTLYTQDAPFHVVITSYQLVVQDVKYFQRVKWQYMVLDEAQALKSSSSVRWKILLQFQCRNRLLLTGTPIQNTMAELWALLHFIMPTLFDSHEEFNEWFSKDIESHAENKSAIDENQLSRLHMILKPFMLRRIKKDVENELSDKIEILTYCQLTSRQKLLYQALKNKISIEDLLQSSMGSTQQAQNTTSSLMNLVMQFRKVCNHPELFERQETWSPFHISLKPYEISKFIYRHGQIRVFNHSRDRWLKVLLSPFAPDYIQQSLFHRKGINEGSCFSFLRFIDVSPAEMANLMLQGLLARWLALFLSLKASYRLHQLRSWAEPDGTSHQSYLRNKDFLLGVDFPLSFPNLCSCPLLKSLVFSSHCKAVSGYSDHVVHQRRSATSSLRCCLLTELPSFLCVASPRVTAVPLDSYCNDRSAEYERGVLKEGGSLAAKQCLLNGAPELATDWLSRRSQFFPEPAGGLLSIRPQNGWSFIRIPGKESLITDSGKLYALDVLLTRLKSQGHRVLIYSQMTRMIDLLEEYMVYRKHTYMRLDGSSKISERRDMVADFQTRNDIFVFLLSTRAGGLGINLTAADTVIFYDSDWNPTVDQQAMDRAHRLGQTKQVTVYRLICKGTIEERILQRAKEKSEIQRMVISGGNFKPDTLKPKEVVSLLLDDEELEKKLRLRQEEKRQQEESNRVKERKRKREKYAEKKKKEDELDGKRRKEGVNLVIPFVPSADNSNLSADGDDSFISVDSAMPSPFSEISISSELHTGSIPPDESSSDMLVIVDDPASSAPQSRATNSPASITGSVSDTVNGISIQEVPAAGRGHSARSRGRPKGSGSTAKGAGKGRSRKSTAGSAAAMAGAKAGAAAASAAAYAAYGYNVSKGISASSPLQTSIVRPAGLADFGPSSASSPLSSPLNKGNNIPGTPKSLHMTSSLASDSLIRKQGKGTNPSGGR

[9] = target: Coatomer subunit delta (Mus musculus) (UniProt Q5XJY5)
[10] = target: Collagen alpha-1(XV) chain (Mus musculus) (UniProt O35206)
Cullin-1 (Mus musculus) = Cullin-1 (Mus musculus) (UniProt Q9WTX6)
Cullin-2 (Mus musculus) = Cullin-2 (Mus musculus) (UniProt Q9D4H8)
[11] = target: Dual specificity mitogen-activated protein kinase kinase 3 (Mus musculus) (UniProt O09110)
[12] = target: EH domain-containing protein 2 (Mus musculus) (UniProt Q8BH64)
Elongin-A (Mus musculus) = Elongin-A (Mus musculus) (UniProt Q8CB77)
Emerin (Mus musculus) = Emerin (Mus musculus) (UniProt O08579)
[13] = target: Eukaryotic translation initiation factor 3 subunit H (Mus musculus) (UniProt Q91WK2)
Eukaryotic translation initiation factor 3 subunit H (Mus musculus), sequence (Q91WK2 whole entry): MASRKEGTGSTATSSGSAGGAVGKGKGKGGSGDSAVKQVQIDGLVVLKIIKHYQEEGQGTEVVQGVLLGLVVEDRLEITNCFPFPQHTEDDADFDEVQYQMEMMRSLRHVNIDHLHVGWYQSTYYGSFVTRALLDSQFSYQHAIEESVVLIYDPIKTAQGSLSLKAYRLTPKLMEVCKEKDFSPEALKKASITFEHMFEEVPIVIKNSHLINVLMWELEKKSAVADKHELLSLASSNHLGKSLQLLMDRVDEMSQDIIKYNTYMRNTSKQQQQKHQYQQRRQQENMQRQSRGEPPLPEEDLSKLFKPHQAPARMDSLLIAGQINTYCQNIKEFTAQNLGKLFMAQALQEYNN

[14] = target: Extended synaptotagmin-2 (Mus musculus) (UniProt Q3TZZ7)
[15] = target: Gamma-sarcoglycan (Mus musculus) (UniProt P82348)
[16] = target: Glypican-4 (Mus musculus) (UniProt P51655)
[17] = target: Methylcrotonoyl-CoA carboxylase subunit alpha, mitochondrial (Mus musculus) (UniProt Q99MR8)
[18] = target: Microtubule-associated protein 4 (Mus musculus) (UniProt P27546)
Myocilin (Mus musculus) = Myocilin (Mus musculus) (UniProt O70624)
[19] = target: NADH dehydrogenase [ubiquinone] flavoprotein 1, mitochondrial (Mus musculus) (UniProt Q91YT0)
[20] = target: Popeye domain-containing protein 3 (Mus musculus) (UniProt Q9ES81)
[21] = target: Probable ubiquitin carboxyl-terminal hydrolase FAF-X (Mus musculus) (UniProt P70398)
[22] = target: Protein phosphatase 1 regulatory subunit 3A (Mus musculus) (UniProt Q99MR9)
[23] = target: RNA methyltransferase 10 homolog C (Mus musculus) (UniProt Q3UFY8)
[24] = target: SUN domain-containing protein 2 (Mus musculus) (UniProt Q8BJS4)
[25] = target: Sodium/potassium-transporting ATPase subunit alpha-1 (Mus musculus) (UniProt Q8VDN2)
[26] = target: Solute carrier family 12 member 1 (Mus musculus) (UniProt P55014)
Solute carrier family 12 member 1 (Mus musculus), sequence (P55014 whole entry): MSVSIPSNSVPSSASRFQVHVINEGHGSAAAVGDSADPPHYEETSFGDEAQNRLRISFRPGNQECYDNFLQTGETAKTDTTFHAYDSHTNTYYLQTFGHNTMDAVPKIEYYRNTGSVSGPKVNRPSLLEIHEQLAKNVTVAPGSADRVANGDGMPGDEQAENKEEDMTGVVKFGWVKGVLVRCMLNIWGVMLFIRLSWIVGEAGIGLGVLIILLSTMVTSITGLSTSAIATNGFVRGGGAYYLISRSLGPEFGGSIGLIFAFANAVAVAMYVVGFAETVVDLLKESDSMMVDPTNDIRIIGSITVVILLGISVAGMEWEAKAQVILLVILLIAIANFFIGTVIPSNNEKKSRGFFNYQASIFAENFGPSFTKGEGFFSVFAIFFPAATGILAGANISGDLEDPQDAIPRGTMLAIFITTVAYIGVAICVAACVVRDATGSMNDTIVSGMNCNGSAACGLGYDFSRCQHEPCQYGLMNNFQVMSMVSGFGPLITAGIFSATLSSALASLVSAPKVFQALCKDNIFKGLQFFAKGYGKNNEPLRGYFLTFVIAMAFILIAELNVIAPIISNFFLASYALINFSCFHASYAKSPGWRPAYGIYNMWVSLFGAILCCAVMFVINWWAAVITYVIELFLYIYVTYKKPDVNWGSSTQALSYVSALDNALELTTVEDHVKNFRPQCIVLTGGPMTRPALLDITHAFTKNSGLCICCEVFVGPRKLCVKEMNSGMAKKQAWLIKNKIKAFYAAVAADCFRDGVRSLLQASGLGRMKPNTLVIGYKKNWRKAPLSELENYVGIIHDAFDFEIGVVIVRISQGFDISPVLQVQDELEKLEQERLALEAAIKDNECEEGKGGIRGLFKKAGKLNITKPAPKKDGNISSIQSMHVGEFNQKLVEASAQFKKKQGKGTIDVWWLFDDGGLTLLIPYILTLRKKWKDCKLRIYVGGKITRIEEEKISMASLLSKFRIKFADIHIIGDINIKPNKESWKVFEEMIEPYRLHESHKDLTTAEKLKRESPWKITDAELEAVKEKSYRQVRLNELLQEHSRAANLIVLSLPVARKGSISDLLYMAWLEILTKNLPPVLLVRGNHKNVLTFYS

[27] = target: Solute carrier family 12 member 2 (Mus musculus) (UniProt P55012)
Talin-2 (Mus musculus) = Talin-2 (Mus musculus) (UniProt Q71LX4)
[28] = target: Transmembrane protein 43 (Mus musculus) (UniProt Q9DBS1)
[29] = target: U1 small nuclear ribonucleoprotein 70 kDa (Mus musculus) (UniProt Q62376)
[30] = target: mRNA turnover protein 4 homolog (Mus musculus) (UniProt Q9D0I8)
[31] = target: von Willebrand factor A domain-containing protein 8 (Mus musculus) (UniProt Q8CC88)

human BVES fused with 3xHA tag, sequence (Q8NE79 other isoform, or with tags, fused parts or gaps limits assumed): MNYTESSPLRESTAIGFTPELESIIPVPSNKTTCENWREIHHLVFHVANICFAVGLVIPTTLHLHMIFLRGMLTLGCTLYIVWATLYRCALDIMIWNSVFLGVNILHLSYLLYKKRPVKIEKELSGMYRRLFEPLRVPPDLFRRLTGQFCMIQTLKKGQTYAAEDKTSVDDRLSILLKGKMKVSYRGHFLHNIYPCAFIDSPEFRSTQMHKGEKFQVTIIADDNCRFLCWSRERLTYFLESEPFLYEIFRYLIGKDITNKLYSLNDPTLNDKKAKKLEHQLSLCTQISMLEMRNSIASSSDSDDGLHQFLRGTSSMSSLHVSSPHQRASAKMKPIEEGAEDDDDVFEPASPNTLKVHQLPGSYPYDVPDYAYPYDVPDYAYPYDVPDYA
ATP-binding cassette sub-family F member 1 (Mus musculus), sequence (Q6P542 whole entry): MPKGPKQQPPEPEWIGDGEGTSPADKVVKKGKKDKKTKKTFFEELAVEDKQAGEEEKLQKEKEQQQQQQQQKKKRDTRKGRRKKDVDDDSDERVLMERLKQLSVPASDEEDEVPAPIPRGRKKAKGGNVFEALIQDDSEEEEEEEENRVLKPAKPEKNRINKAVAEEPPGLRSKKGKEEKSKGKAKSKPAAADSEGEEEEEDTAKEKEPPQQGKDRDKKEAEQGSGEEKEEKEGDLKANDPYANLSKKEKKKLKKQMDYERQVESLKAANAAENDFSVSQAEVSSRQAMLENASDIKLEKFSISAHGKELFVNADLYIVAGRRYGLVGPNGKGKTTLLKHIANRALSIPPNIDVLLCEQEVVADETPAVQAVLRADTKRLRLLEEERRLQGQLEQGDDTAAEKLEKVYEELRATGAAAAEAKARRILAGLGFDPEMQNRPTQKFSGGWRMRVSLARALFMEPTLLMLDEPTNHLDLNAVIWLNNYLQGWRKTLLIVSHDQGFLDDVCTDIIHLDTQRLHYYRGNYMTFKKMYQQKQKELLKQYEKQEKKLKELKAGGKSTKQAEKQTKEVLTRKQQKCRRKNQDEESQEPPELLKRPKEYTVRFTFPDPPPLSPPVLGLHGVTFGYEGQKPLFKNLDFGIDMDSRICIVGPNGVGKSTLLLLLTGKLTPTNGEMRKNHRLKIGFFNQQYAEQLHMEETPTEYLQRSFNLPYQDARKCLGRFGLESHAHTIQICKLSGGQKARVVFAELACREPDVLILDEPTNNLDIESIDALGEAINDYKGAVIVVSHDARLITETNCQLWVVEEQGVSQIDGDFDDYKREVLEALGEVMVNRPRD

“human BVES fused with 3xHA tag (from UniProt Q8NE79 1-360)” was tested, and the AAV9-BVES-HA (IP-MS count) [1] was 4, the AAV9-BVES-HA (IP-MS count) [2] was 4 and the AAV9-BVES-HA (IP-MS count) [3] was 2. It also gave an AAV9-BVES-HA (IP-MS count) (Ankyrin-1 (Mus musculus)) of 31, an AAV9-BVES-HA (IP-MS count) (Ankyrin-3 (Mus musculus)) of 242 and an AAV9-BVES-HA (IP-MS count) [4] of 2. The AAV9-BVES-HA (IP-MS count) [5] was 6, the AAV9-BVES-HA (IP-MS count) [6] was 2 and the AAV9-BVES-HA (IP-MS count) [7] was 2. For the same substance, the AAV9-BVES-HA (IP-MS count) [8] was 2, the AAV9-BVES-HA (IP-MS count) [9] was 2 and the AAV9-BVES-HA (IP-MS count) [10] was 7. It also gave an AAV9-BVES-HA (IP-MS count) (Cullin-1 (Mus musculus)) of 2, an AAV9-BVES-HA (IP-MS count) (Cullin-2 (Mus musculus)) of 3 and an AAV9-BVES-HA (IP-MS count) [11] of 3. For the same substance, the AAV9-BVES-HA (IP-MS count) [12] was 6, the AAV9-BVES-HA (IP-MS count) (Elongin-A (Mus musculus)) was 3 and the AAV9-BVES-HA (IP-MS count) (Emerin (Mus musculus)) was 6. The AAV9-BVES-HA (IP-MS count) [13] was 2, the AAV9-BVES-HA (IP-MS count) [14] was 2 and the AAV9-BVES-HA (IP-MS count) [15] was 5. For the same substance, the AAV9-BVES-HA (IP-MS count) [16] was 11, the AAV9-BVES-HA (IP-MS count) [17] was 3 and the AAV9-BVES-HA (IP-MS count) [18] was 2. For the same substance, the AAV9-BVES-HA (IP-MS count) (Myocilin (Mus musculus)) was 2, the AAV9-BVES-HA (IP-MS count) [19] was 3 and the AAV9-BVES-HA (IP-MS count) [20] was 5. It also gave an AAV9-BVES-HA (IP-MS count) [21] of 3, an AAV9-BVES-HA (IP-MS count) [22] of 12 and an AAV9-BVES-HA (IP-MS count) [23] of 2. It also gave an AAV9-BVES-HA (IP-MS count) [24] of 14, an AAV9-BVES-HA (IP-MS count) [25] of 12 and an AAV9-BVES-HA (IP-MS count) [26] of 2. For the same substance, the AAV9-BVES-HA (IP-MS count) [27] was 3, the AAV9-BVES-HA (IP-MS count) (Talin-2 (Mus musculus)) was 3 and the AAV9-BVES-HA (IP-MS count) [28] was 2. It also gave an AAV9-BVES-HA (IP-MS count) [29] of 2, an AAV9-BVES-HA (IP-MS count) [30] of 2 and an AAV9-BVES-HA (IP-MS count) [31] of 4.
